From the Human Domainome abundance scans (Beltran et al. 2025)
± gives the uncertainty stated by the source.

B1: Zinc finger protein ZIC 2, residues 250 to 295; numbered along this chain, O95409 (parent)
chain: QCIKQELICKWIDPEQLSNPKKSCNKTFSTMHELVTHVSVEHVGGP

Variants of: B1
Assay: abundance fitness (aPCA) (normalised: wild type 0, dead -1); higher = more abundant; growth selection in yeast, the domain comes from the species named
Settings: Homo sapiens

| Variant | abundance fitness |
| --- | --- |
| QCIKQELICKWIDPEQLSNPKKSCNKTFSCMHELVTHVSVEHVGGP | -0.999 ± 0.16 |
| QCIKQELICKWIDPEQLSNPKKSCNKTFSWMHELVTHVSVEHVGGP | -0.661 ± 0.12 |
| QCIKQELICKWIDPEQLSNPKKSCNKTFSFMHELVTHVSVEHVGGP | -0.254 ± 0.14 |
| QCIKQELICKWIDPEQLSNPKKSCNKWFSTMHELVTHVSVEHVGGP | -0.296 ± 0.089 |
| QCIKQELICKWIDPEQLSNPKKSCNKYFSTMHELVTHVSVEHVGGP | -0.818 ± 0.17 |
| QCIKQELICKWIDPEQLSNPKKSCNKVFSTMHELVTHVSVEHVGGP | 0.06 ± 0.088 |
| QCIKQELICKWIDPEQLSNPKKSCNKTFSTMIELVTHVSVEHVGGP | -0.211 ± 0.12 |
| QCIKQELICKWIDPEQLSNPKKSCNKTFSTMFELVTHVSVEHVGGP | 0.012 ± 0.11 |
| QCIKQELICKWIDPEQLSNPKKSCNKTFSTMEELVTHVSVEHVGGP | 0.082 ± 0.096 |
| QCIKQELICKWIDPEQLSNPKKSCNKTFSTMGELVTHVSVEHVGGP | -0.044 ± 0.086 |
| QCIKQELICKWIDPEQLSNPKKSCNKTFSTMRELVTHVSVEHVGGP | 0.084 ± 0.086 |
| QCIKQELICKWIDPEQLSNPKKSCNKTFSTMWELVTHVSVEHVGGP | 0.163 ± 0.094 |
| QCIKQELICKWIDPEQLSNPKKSCNKTFSTMPELVTHVSVEHVGGP | 0.171 ± 0.091 |
| QCIKQELICKWIDPEQLSNPKKSCNKTFSTMAELVTHVSVEHVGGP | 0.14 ± 0.086 |
| QCIKQELICKWIDPEQLSNPKKSCNKTFSTMVELVTHVSVEHVGGP | -0.196 ± 0.087 |
| QCIKQELICKWIDPEQLSNPKKSCNKTFSTMLELVTHVSVEHVGGP | -0.471 ± 0.089 |
| QCIKQELICKWIDPEQLSNPKKSCNKTFSTMNELVTHVSVEHVGGP | 0.275 ± 0.11 |
| QCIKQELICKWIDPEQLSNPKKSCNKTFSTMYELVTHVSVEHVGGP | -0.573 ± 0.12 |
| QCIKQELICKWIDPEQLSNPKKSCNKTFSTMDELVTHVSVEHVGGP | 0.092 ± 0.098 |

| Variant | abundance fitness |
| --- | --- |
| QCIKQELICKWIDPEQLSNPKKSCNKTFSTMMELVTHVSVEHVGGP | -0.263 ± 0.095 |
| QCIKQELICKWIDPEQLSNPKKSCNKTFSTMCELVTHVSVEHVGGP | -0.172 ± 0.1 |
| QCIKQELICKWIDPEQLSNPKKSCNKTFSTMSELVTHVSVEHVGGP | 0.011 ± 0.089 |
| QCIKQELICKWIDPEQLSNPKKSCNKTFSTMTELVTHVSVEHVGGP | 0.037 ± 0.091 |
| QCIKQELICKWIDPEQLSNPKKSCNKTFSTMKELVTHVSVEHVGGP | -0.011 ± 0.11 |
| QCIKQELICKWIDPEQLSNPKKSCNKTFSTQHELVTHVSVEHVGGP | 0.438 ± 0.095 |
| QCIKQELICKWIDPEQLSNPKKSCNKTFSTNHELVTHVSVEHVGGP | 0.622 ± 0.11 |
| QCIKQELICKWIDPEQLSNPKKSCNKTFSTLHELVTHVSVEHVGGP | -0.377 ± 0.088 |
| QCIKQELICKWIDPEQLSNPKKSCNKTFSTDHELVTHVSVEHVGGP | 0.334 ± 0.098 |
| QCIKQELICKWIDPEQLSNPKKSCNKTFSTSHELVTHVSVEHVGGP | 0.321 ± 0.089 |
| QCIKQELICKWIDPEQLSNPKKSCNKTFSTHHELVTHVSVEHVGGP | 0.436 ± 0.13 |
| QCIKQELICKWIDPEQLSNPKKSCNKTFSTCHELVTHVSVEHVGGP | -0.569 ± 0.12 |
| QCIKQELICKWIDPEQLSNPKKSCNKTFSTIHELVTHVSVEHVGGP | 0.318 ± 0.1 |
| QCIKQELICKWIDPEQLSNPKKSCNKTFSTPHELVTHVSVEHVGGP | -0.079 ± 0.098 |
| QCIKQELICKWIDPEQLSNPKKSCNKTFSTWHELVTHVSVEHVGGP | -0.602 ± 0.096 |
| QCIKQELICKWIDPEQLSNPKKSCNKTFSTAHELVTHVSVEHVGGP | 0.12 ± 0.085 |
| QCIKQELICKWIDPEQLSNPKKSCNKTFSTTHELVTHVSVEHVGGP | 0.042 ± 0.099 |
| QCIKQELICKWIDPEQLSNPKKSCNKTFSTKHELVTHVSVEHVGGP | 0.518 ± 0.097 |
| QCIKQELICKWIDPEQLSNPKKSCNKTFSTVHELVTHVSVEHVGGP | -0.363 ± 0.086 |

| Variant | abundance fitness |
| --- | --- |
| QCIKQELICKWIDPEQLSNPKKSCNKTFSTGHELVTHVSVEHVGGP | 0.079 ± 0.083 |
| QCIKQELICKWIDPEQLSNPKKSCNKTFSTEHELVTHVSVEHVGGP | 0.373 ± 0.089 |
| QCIKQELICKWIDPEQLSNPKKSCNKTESTMHELVTHVSVEHVGGP | -0.547 ± 0.1 |
| QCIKQELICKWIDPEQLSNPKKSCNKTCSTMHELVTHVSVEHVGGP | -0.725 ± 0.11 |
| QCIKQELICKWIDPEQLSNPKKSCNKTQSTMHELVTHVSVEHVGGP | -0.705 ± 0.12 |
| QCIKQELICKWIDPEQLSNPKKSCNKTLSTMHELVTHVSVEHVGGP | -0.668 ± 0.092 |
| QCIKQELICKWIDPEQLSNPKKSCNKTWSTMHELVTHVSVEHVGGP | -0.968 ± 0.1 |
| QCIKQELICKWIDPEQLSNPKKSCNKTHSTMHELVTHVSVEHVGGP | -1.04 ± 0.15 |
| QCIKQELICKWIDPEQLSNPKKSCNKTYSTMHELVTHVSVEHVGGP | -0.724 ± 0.13 |
| QCIKQELICKWIDPEQLSNPKKSCNKTGSTMHELVTHVSVEHVGGP | -0.598 ± 0.089 |
| QCIKQELICKWIDPEQLSNPKKSCNKTVSTMHELVTHVSVEHVGGP | -0.724 ± 0.1 |
| QCIKQELICKWIDPEQLSNPKKSCNKTRSTMHELVTHVSVEHVGGP | -0.84 ± 0.09 |
| QCIKQELICKWIDPEQLSNPKKSCNKTSSTMHELVTHVSVEHVGGP | -0.887 ± 0.097 |
| QCIKQELICKWIDPEQLSNPKKSCNKTASTMHELVTHVSVEHVGGP | -0.811 ± 0.1 |
| QCIKQELICKWIDPEQLSNPKKSCNKTDSTMHELVTHVSVEHVGGP | -0.914 ± 0.15 |
| QCIKQELICKWIDPEQLSNPKKSCNKTKSTMHELVTHVSVEHVGGP | -0.471 ± 0.11 |
| QCIKQELICKWIDPEQLSNPKKSCNKTMSTMHELVTHVSVEHVGGP | -0.683 ± 0.11 |
| QCIKQELICKWIDPEQLSNPKKSCNKTTSTMHELVTHVSVEHVGGP | -0.631 ± 0.1 |
